Patent US20230270119A1, “BIOSTIMULANT AND BIOPROTECTIVE PEPTIDES AND THEIR USE IN AGRICULTURE” (priority 2020, published 2023)

B1: PS1-70: recombinant peptide contained in the amino-terminal region of the Prosystemin polypeptide, free of Systemin; expressed in E. coli (protein)
chain: MGTPSYDIKNKGDDMQEEPKVKLHHEKGGDEKEKIIEKETPSQDINNKDTISSYVLRDDTQEIPKMEHEE
modifications: Peptide PS1-70
notes: recombinant peptide contained in the amino-terminal region of the Prosystemin polypeptide, free of Systemin; expressed in E. coli
B2: PS1-120: recombinant peptide contained in the amino-terminal region of the Prosystemin polypeptide, free of Systemin; expressed in E. coli (protein)
chain: MGTPSYDIKNKGDDMQEEPKVKLHHEKGGDEKEKIIEKETPSQDINNKDTISSYVLRDDTQEIPKMEHEEGGYVKEKIVEKETISQYIIKIEGDDDAQEKLKVEYEEEEYEKEKIVEKET
modifications: Peptide PS1-120
notes: as for B1

Columns and labels:
[1] = test system: Botrytis cinerea; assay: Botrytis cinerea necrosis areas on treated detached tomato leaves; assay type: in vivo, Botrytis cinerea on Solanum lycopersicum
Description: (§1) For the performance of assays on the phytopathogenic Botrytis cinerea and Alternaria alternata fungi, the present inventors used spores of this microorganism obtained from cultures on solid PDA (Potato Dextrose Agar) sporulation substrate. The plates were inoculated with 20 μl of a conidial suspension at a concentration of 1×10^6 spores/ml and incubated for 15 days at 25° C. in the presence of diffused light, so as to obtain complete sporulation. The spores were then collected in 5 ml of sterile water and, in order to remove the mycelium, were filtered through glass wool, washed with sterile distilled water and collected by centrifugation at room temperature. The concentration of spores suitable for inoculation (10^5-10^7 spores/ml) was determined by the serial dilution method using a Burker cell counting chamber for spore counting.
(§2) The assay was carried out on a detached leaf by taking a compound leaf for each treated tomato plant and for each control plant. Each leaflet of the compound leaf was marked with 3 markers in order to guide the subsequent application of the spores and detection of the pathogen developing necrotic areas.
The leaves were treated by applying 2 μl of a composition comprising the peptides PS1-70 and PS1-120 of the invention at a concentration of 100 pM, 100 fM or 1×PBS for the control leaves. After 6 hours, the time necessary for the perception of the peptides, the leaves were detached from the plant and inoculations with 10 μl of spore solution were carried out in the internerve spaces and near the previously marked points. Monitoring was carried out by measuring the necrosis areas (expressed in mm^2) 1, 3, 5, 8 days after inoculation of the pathogen. The necrosis areas recorded on the control leaves were much larger than those detected on plants treated with the peptides of the invention. This difference increased as a function of the time elapsed since inoculation. The resistance inducing effect of the picomolar treatment is already statistically significant from the first day of inoculation of the pathogen up to the eighth day where values of 33 mm^2 were reached on the control leaves, unlike the treated leaves where values not exceeding 18 mm^2 were recorded for both peptides (FIG. 12A).

[2] = test system: Alternaria alternata; assay: Alternaria alternata necrosis areas on treated tomato leaves; assay type: in vivo; details: 100 fM
Description: as §1, §2
The present inventors also performed assays aimed at determining the effects of exogenous application of the peptides of the invention on tomato plants against the development of the necrotrophic Alternaria alternata fungus (FIG. 14).
The positive effect of the treatment was statistically significant from day 1 of inoculation of the pathogen to day 8 where values of 24 mm^2 were reached on the control leaves, unlike the treated leaves where values of 8.4 and 8.0 mm^2 were recorded on leaves treated with the peptides PS1-70 and PS1-120 at a concentration of 100 fM (FIG. 14A); and values of 17 mm^2 were recorded on the control leaves and values of 8.3 mm^2, 7.9 mm^2, 8.9 mm^2, and 7.8 mm^2 were recorded on leaves treated with the peptides PS1-70, SEQ ID NO.8, SEQ ID NO.3 and SEQ ID NO.5, respectively, at a concentration of 100 fM (FIG. 14B).

[3] = test system: cat1, tft1, Sam, HSFA2, HSP70, HSP90, MPK1 and WRKY40 genes; assay: Salt stress gene expression in tomato plants irrigated with 100 pM peptide; assay type: in vivo; details: 100 pM irrigation
Description: The analysis was carried out on the cat1, tft1, Sam, HSFA2, HSP70, HSP90, MPK1 and WRKY40 genes. The asterisks indicate the statistical significance of the data by Student's t-test (*p<0.05; **p<0.01; ***p<0.001).
An experiment was also set up to verify the efficiency of the peptides PS1-70, PS1-120 and SEQ ID NO.5, when administered at femtomolar concentrations, in promoting tolerance to a high salt stress condition.

[4] = femtomolar, day 8, control 20 mm^2 (FIG. 12B)
[5] = day 8, control 24 mm^2 (FIG. 14A)

Row | Molecule | necrosis areas ([1]; 100 fM, day 8, control 11.72 mm^2 (FIG. 13)) [mm^2] | necrosis areas [1, 4] [mm^2] | necrosis areas ([2]; day 8, control 17 mm^2 (FIG. 14B)) [mm^2] | necrosis areas [2, 5] [mm^2] | activation of salt stress-responsive genes and transcription factors ([3]; 48 hours, 0 mM NaCl (FIG. 17A)) | tolerance to salt / induction of responsive genes ([3]; moderate salt stress 80 mM NaCl (FIG. 17B))
1 | B1 | 7.69 | 6.69 | 8.3 | 8.4 | able to activate a series of genes and transcription factors responsive to salt stress | more tolerant to salt than the untreated control plants
2 | B2 | – | 5.19 | – | 8.0 | – | –
